From US20230285514A1, “STAPLED LACTAM CO-AGONISTS OF THE GLUCAGON AND GLP-1 RECEPTORS” (Merck Sharp & Dohme LLC, priority 2019, published 2023)
*1 amine or outer side, *2 acyl side, *3 side chain or, on linkers, in order; H or OH if unused. Where a SMILES comes first, the peptide text is derived from it. Bridges are numbered along the chain shown (N, C = ends). Where no end group is shown, it is not given here. Side-chain parts run from the residue outwards. [ ]: non-standard residue; d: D form. The star is where a group is joined. γGlu = O=C(O)[C@H](CCC(=O)[*:2])N[*:1]; Met(O2) = CS(=O)(=O)CC[C@H](N)C(=O)O; Palmitoyl = CCCCCCCCCCCCCCCC(=O)*; Nle = CCCC[C@H](N)C(=O)O; Ac4c = NC1(C(=O)O)CCC1; Aib = CC(C)(N)C(=O)O

Tests used:
[1] = biological target: T1, human GCGR (Homo sapiens, UniProt P47871); experiment: cAMP activity assay, cells expressing human GCGR; assay type: cell-based; details: ratio of human GCGR EC50 to human GLP1R EC50
T1 construct: expressed in transfected cells
T1 sequence (P47871 26-477): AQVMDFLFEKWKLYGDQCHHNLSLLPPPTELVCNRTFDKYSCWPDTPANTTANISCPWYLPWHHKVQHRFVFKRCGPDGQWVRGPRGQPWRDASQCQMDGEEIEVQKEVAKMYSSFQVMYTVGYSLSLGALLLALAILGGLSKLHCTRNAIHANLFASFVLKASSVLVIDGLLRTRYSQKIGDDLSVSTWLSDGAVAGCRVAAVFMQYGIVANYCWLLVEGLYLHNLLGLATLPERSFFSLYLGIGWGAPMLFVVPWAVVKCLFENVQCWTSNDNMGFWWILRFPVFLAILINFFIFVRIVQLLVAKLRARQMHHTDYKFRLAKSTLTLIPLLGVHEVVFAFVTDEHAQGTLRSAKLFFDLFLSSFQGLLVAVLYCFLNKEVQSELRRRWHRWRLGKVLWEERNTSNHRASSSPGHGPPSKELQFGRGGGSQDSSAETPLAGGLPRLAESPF
Experimental: Activity of the peptides at the Glucagon receptor (GCGR) and GLP-1 receptor (GLP1R) was measured in a cAMP activity assay. Peptides were dissolved in 100% DMSO and serially diluted to generate 10 point titrations. The peptide solutions were then transferred into 384-well assay plates (150 nL/well). Assay ready frozen cells expressing human GLP1R or human GCGR were suspended in growth media consisting of DMEM medium (GIBCO), 10% FBS (GIBCO), 1×NEAA(GIBCO), 1×P/S (GIBCO), 10 ug/ml Blasticidin (GIBCO) and 200 μg/mL Hygromycin (GIBCO). […] The cell suspensions (15 μL) were then added to the assay plates containing the peptide solutions (30,000 cells/well for human GCGR; 10,000 cells/well for human GLP1R). […] Production of cAMP was determined using […] kits (DiscoverX) following manufacturer protocol. The plates were incubated for overnight at room temperature in the dark. Luminescence was measured using an EnVision Multilabel plate reader (Perkin Elmer). Native GLP-1 and Glucagon (Bachem) are used as control peptides.

[2] = biological target: human Glucagon receptor (GCGR) (human, UniProt P47871); experiment: cell-based or functional assay
[3] = biological target: human GLP-1 receptor (GLP1R) (human, UniProt P43220); experiment: cell-based or functional assay

Molecule	hGCGR/hGLPIR (hTone) [1]	GCGR EC50 human (nM), cAMP activity assay [2] [nM]	GLP1R EC50 human (nM), cAMP activity assay [3] [nM]
CCCCCCCCCCCCCCCC(=O)N[C@@H](CCC(=O)N[C@@H](CCC(=O)NCCCC[C@H](NC(=O)[C@H](CC(=O)O)NC(=O)[C@H](CO)NC(=O)[C@@H](NC(=O)[C@H](Cc1ccccc1)NC(=O)[C@@H](NC(=O)CNC(=O)[C@H](CCC(N)=O)NC(=O)[C@@H](CO)NC(=O)[C@@H](N)Cc1c[nH]cn1)[C@@H](C)O)[C@@H](C)O)C(=O)N[C@@H](CO)C(=O)N[C@@H](CCCCN)C(=O)N[C@@H](Cc1ccc(O)cc1)C(=O)N[C@@H](CC(C)C)C(=O)N[C@@H](CC(=O)O)C(=O)N[C@@H](CCC(=O)O)C(=O)N[C@@H](CCCNC(=N)N)C(=O)N[C@@H](C)C(=O)N[C@@H](C)C(=O)N[C@H]1CCC(=O)NCCCC[C@@H](C(=O)N[C@@H](Cc2c[nH]c3ccccc23)C(=O)N[C@@H](CC(C)C)C(=O)N[C@@H](CC(C)C)C(=O)N[C@@H](CC(=O)O)C(=O)N[C@H](C(N)=O)[C@@H](C)O)NC(=O)[C@H](C(C)C)NC(=O)[C@H](Cc2ccccc2)NC(=O)[C@H](CC(=O)O)NC1=O)C(=O)O)C(=O)O [SEQ ID NO: 7] (H-H[dS]QGTFTSDK([γGlu-γGlu-Palmitoyl])SKYLDERAAEDFVKWLLDT-NH2; lactam 20-24; N-terminus assumed)	1.05		
H[dS]QGTFTSDKSKYLDARAAQDFVKWLLET-NH2 (lactam 24-28; not fully specified (residue 10); printed as HsQGTFTSDK(γEγEC16)SKYLDARAAQDFVK*WLLE*T-NH2) [TP834]		0.077	0.137
H[dS]QGTFTSDKSKYLDARAAKDFVEWLLDT-NH2 (lactam 20-24; not fully specified (residue 10); printed as HsQGTFTSDK(γEγEC16)SKYLDARAAK*DFVE*WLLDT-NH2) [TP707]		0.1	0.17
H[Aib]QGTFTSDKSKYLD[Aib]RAAKDFVEWL[Met(O2)]DTK(γGlu)-NH2 (lactam 20-24; not fully specified (residue 10); printed as HUQGTFTSDK(γEγEC16)SKYLDURAAK*DFVE*WL2DTKγE-NH2) [TP846]		0.176	0.147
H[Aib]QGTFTSDKSKYLDKRAAEDFVQWL[Met(O2)]DTK(γGlu)-NH2 (lactam 16-20; not fully specified (residue 10); printed as HUQGTFTSDK(γEγEC16)SKYLDK*RAAE*DFVQWL2DTKγE-NH2) [TP844]		0.046	0.022
H[Aib]QGTFTSDKSKYLD[Aib]RAAQDFVEWLMKTK(γGlu)-NH2 (lactam 24-28; not fully specified (residue 10); printed as HUQGTFTSDK(γEγEC16)SKYLDURAAQDFVE*WLMK*TKγE-NH2) [TP486]		0.06	0.29
H[Aib]QGTFTSDKSKYLD[Aib]RAAQDFVKWL[Nle]ET-NH2 (lactam 24-28; not fully specified (residue 10); printed as HUQGTFTSDK(γEγEC16)SKYLDURAAQDFVK*WL-Nle-E*T-NH2) [TP842]		0.248	0.237
H[Aib]QGTFTSDKSKYLD[Ac4c]RAAQDFVKWL[Met(O2)]ETK(γGlu)-NH2 (lactam 24-28; not fully specified (residue 10)) [TP861]		0.928	0.056
H[dS]QGTFTSEK([γGlu-γGlu-C16 fatty acid])SKKLD[Aib]RAAQDFVQWLLATK(γGlu)-NH2 (lactam 9-13) [TP115]		0.81	1.03
H[Aib]QGTFTSDKSKYLD[Ac4c]RAAKDFVEWL[Met(O2)]DTK(γGlu)-NH2 (lactam 20-24; not fully specified (residue 10)) [TP859]		0.108	0.043
H[Aib]QGTFTSDKSKYLD[Aib]RAAKDFVEWL[Nle]DT-NH2 (lactam 20-24; not fully specified (residue 10); printed as HUQGTFTSDK(γEγEC16)SKYLDURAAK*DFVE*WL-Nle-DT-NH2) [TP838]		0.675	0.259
H[Aib]QGTFTSDKSKYLD[Aib]RAAQDFVKWL[Met(O2)]ETK(γGlu)-NH2 (lactam 24-28; not fully specified (residue 10); printed as HUQGTFTSDK(γEγEC16)SKYLDURAAQDFVK*WL2E*TKγE-NH2) [TP850]		0.034	0.033
H[Aib]QGTFTSDKSKYLD[Aib]KAAQEFVQWL[Nle]DT-NH2 (lactam 17-21; not fully specified (residue 10); printed as HUQGTFTSDK(γEγEC16)SKYLDUK*AAQE*FVQWL-Nle-DT-NH2) [TP840]		0.212	0.17
H[Aib]QGTFTSDKSKYLDKRAAEDFVQWL[Nle]DT-NH2 (lactam 16-20; not fully specified (residue 10); printed as HUQGTFTSDK(γEγEC16)SKYLDK*RAAE*DFVQWL-Nle-DT-NH2) [TP836]		0.281	0.198
H[dS]QGTFTSDKSKYLDERAAKDFVEWLLDT-NH2 (lactam 20-24; not fully specified (residue 10); printed as HsQGTFTSDK(γEγEC16)SKYLDERAAK*DFVE*WLLDT-NH2) [TP485]		0.05	0.14
H[Aib]QGTFTSDKSKYLD[Ac4c]KAAQEFVQWL[Met(O2)]DTK(γGlu)-NH2 (lactam 17-21; not fully specified (residue 10)) [TP857]		0.092	0.038
H[dS]QGTFTSDKSKYLDAKAAQEFVQWLLDT-NH2 (lactam 17-21; not fully specified (residue 10); printed as HsQGTFTSDK(γEγEC16)SKYLDAK*AAQE*FVQWLLDT-NH2) [TP710]		0.06	0.07
HXQGTFTSDXSKYLDERAAEDFVKWLLDT (s = D-Serine at 2; K10 conjugated to γEγE-C16 fatty acid; E*20 and K*24 cyclized to form a lactam containing ring; C-terminal amide) [TP484]		0.04	0.12
H[Aib]QGTFTSDKSKYLD[Aib]KAAQEFVQWL[Met(O2)]DTK(γGlu)-NH2 (lactam 17-21; not fully specified (residue 10); printed as HUQGTFTSDK(γEγEC16)SKYLDUK*AAQE*FVQWL2DTKγE-NH2) [TP848]		0.079	0.044
H[dS]QGTFTSDKSKYLDKRAAEDFVQWLLDT-NH2 (lactam 16-20; not fully specified (residue 10); printed as HsQGTFTSDK(γEγEC16)SKYLDK*RAAE*DFVQWLLDT-NH2) [Peptide SEQ ID No. 10 (TP706)]		0.089	0.107
